Assay results taken from US6090631.
One block for each substance: values may come before it.

Key:
[1] = biological target: GST-syntaxin 1A fusion protein, full-length (2-289) (rat); assay: competition on GST-syntaxin beads against 125I-ω-CTx-GVIA-labeled N-type channels
[2] = biological target: GST-syntaxin 1A fusion protein, full-length (2-289) (rat); assay: GST-syntaxin 1A pull-down (5 µM GST-syntaxin, 10 µM fusion protein), immunoblot
[3] = biological target: GST alone (Schistosoma japonicum (Blood fluke)) [GST: P08515]; assay: 125I-ω-CTx-GVIA-labeled channels on GST beads, direct counting
[4] = biological target: GST-syntaxin 1A fusion protein, full-length (2-289) (rat); assay: titration on GST-syntaxin beads, immunoblot
[5] = biological target: GST fusion protein including full-length SNAP-25 (Mus musculus (Mouse)) (UniProt P60879); assay: titration on GST-SNAP-25 beads, immunoblot
[6] = biological target: GST-syntaxin 1A fusion protein, full-length (2-289) (rat); assay: GST-syntaxin pull-down at equal concentrations, immunoblot

Substance: His-LII-III (1027-1145)
- percent reduction in the specific binding of labeled N-type channels to GST-syntaxin [1]: 10%

Substance: His-LII-III (773-859)
- percent reduction in the specific binding of labeled N-type channels to GST-syntaxin [1]: 78%

Substance: [125I]-ω-CTx-GVIA-labeled N-type calcium channels, partially purified from rat brain (from UniProt Q02294)
- cpm of labeled channels bound [3]: 549 cpm

Substance: hBI 722-1036
- half-maximal saturation [4]: 2 µM
- half-maximal saturation [5]: 1 to 2 µM

Further lines, results first:

- pixel value (phosphorimaging of bound fusion protein, FIG. 14) [2]: 751 pixel value
Substance: His-LII-III (832-963)

- pixel value (phosphorimaging of bound fusion protein, FIG. 14) [2]: 45 pixel value
Substance: His-LII-III (718-859)

- fold higher affinity than rbB 718-859 [6]: 40 fold
- fold greater affinity than hBI 722-1036 [4]: 10 fold
- half-maximal saturation [4]: 0.2 µM
- pixel value (phosphorimaging of bound fusion protein, FIG. 14) [2]: 1650 pixel value
Substance: rbB 718-963
